# IntAct's records for PubMed 19074278
# B1: Calcium and calcium/calmodulin-dependent serine/threonine-protein kinase (Lotus japonicus), A0AAR7 (parent)
# chain: MGYDQTRKLSDEYEISEILGRGGFSVVRKGTKKSGNEKTQVAIKTLRRLGSSPSGTGGGQKSTATVMGFPSLRQVSVSDALLTNEILVMRRIVENVSPHPNVIDLYDVCEDSNGVHLVLELCSGGELFDRIVAQDKYAETEAAAVVRQIAAGLEAVHKADIVHRDLKPENCLFLDSRKDSPLKIMDFGLSSVEEFTDPVVGLFGSIDYVSPEALSQGKITAKSDMWSLGVILYILLSGYPPFIAQNNRQKQQMIINGNFSFYEKTWKGITQSAKQLISSLLTVDPSKRPSAQELLSHPWVRGDKAKDEQMDPEIVSRLQSFNARRKLRAAAIASVWSSTIFLRTKKLRSLVGTYDLKEEEIESLRIHFKKICGNGDNATLSEFVEVLKAMKMPSLIPLAPRIFDLFDNNRDGTIDMREILCGFSSLKNSKGDDALRLCFQMYDTDRSGCITKEEVASMLCALPEECLPADITEPGKLDEIFDLMDANSDGKVTFEEFKAAMQRDSSLQDMLLSSLRPS
# partner: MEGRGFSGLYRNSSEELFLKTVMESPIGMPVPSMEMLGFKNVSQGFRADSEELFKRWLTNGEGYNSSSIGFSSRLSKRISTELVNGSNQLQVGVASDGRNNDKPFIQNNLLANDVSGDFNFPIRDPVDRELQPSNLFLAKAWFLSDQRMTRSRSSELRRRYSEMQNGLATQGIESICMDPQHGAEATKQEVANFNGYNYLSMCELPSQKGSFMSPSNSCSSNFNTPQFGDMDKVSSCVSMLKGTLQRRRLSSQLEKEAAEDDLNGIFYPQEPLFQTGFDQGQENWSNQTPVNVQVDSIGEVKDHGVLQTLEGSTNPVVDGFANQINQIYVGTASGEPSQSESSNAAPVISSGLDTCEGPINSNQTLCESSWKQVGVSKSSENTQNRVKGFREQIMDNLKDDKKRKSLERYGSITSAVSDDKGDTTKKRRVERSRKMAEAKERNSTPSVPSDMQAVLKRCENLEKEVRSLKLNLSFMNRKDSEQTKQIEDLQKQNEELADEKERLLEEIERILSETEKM
# Variants of: B1
# Settings: with cclop_lotja CYCLOPS
row,Variant,effect of a mutation on the interaction
1,G30E,disrupting interaction
2,K44A;T265I,disrupting interaction
3,K44A,disrupting interaction
